As usually defined, the Kd is the equilibrium constant for the complex coming apart. The stoichiometry N is a count of units in the complex or per binding partner.

The target of one assay is T1, hSPSB1(24–233) (human, UniProt Q96BD6 24-233).
T1 construct: human SPSB1 lacking the SOCS box region, residues 24-233; also called human SPSB1 SPRY domain; source: E. coli BL21(DE3)-R3-pRARE2, purified (Ni-Sepharose, TEV cleavage, size-exclusion, anion exchange); not shown: His6, N-terminal, cleaved
T1 sequence (looked up): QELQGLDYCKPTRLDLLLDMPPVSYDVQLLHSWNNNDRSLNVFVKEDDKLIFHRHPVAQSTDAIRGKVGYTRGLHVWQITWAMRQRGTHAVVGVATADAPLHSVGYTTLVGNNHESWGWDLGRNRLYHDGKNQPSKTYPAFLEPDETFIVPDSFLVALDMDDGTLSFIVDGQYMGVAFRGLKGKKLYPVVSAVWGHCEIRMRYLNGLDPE
The experiment in a line: ITC; 100 μM peptide titrated into 10 μM hSPSB protein; 20 °C; 50 mM Hepes pH 7.4, 150 mM NaCl, 1 mM DTT (hSPSB1) or 0.5 mM TCEP (hSPSB2, hSPSB4); single binding site model. To be noted: both partners purified. On the technique in general: In ITC the heat of successive injections is recorded.

Another assay deals with T2, hSPSB2(26–219) (human, UniProt Q99619 26-219).
T2 construct: human SPSB2 lacking the SOCS box region, residues 26-219; also called human SPSB2 SPRY domain; source: E. coli BL21(DE3)-R3-pRARE2, purified (Ni-Sepharose, size-exclusion); not shown: His6, N-terminal, kept
T2 sequence (looked up): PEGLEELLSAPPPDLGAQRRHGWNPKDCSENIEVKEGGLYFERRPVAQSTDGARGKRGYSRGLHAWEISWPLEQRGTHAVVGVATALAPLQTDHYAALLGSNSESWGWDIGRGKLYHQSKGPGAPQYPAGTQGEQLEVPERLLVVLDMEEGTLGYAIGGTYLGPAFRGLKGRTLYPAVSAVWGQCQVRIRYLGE
Described as above. To be noted: both partners purified.

The target of a further assay is mSPSB4ΔSB (murine). The experiment in a line: ITC; 100 μM peptide titrated into 10 μM mSPSB protein; 22 °C; 20 mM Tris, 150 mM sodium chloride, 2.5 mM calcium chloride, pH 8.0; single binding site model.
For a further assay, the target named is mSPSB1ΔSB (murine). Described as above.
A further assay concerns the target T3, mSPSB2(12–224) (murine, UniProt O88838 12-224).
T3 construct: murine SPSB2 (SSB-2), residues 12-224: lacks the first 11 residues and the C-terminal SOCS box; Uniformly 15N-labelled in one NMR experiment; also called mSPSB2ΔSB; 15N-mSPSB2(12–224); source: E. coli Origami B(DE3) pLysS, GST fusion, purified (glutathione-Sepharose, thrombin cleavage, gel filtration)
T3 sequence (looked up): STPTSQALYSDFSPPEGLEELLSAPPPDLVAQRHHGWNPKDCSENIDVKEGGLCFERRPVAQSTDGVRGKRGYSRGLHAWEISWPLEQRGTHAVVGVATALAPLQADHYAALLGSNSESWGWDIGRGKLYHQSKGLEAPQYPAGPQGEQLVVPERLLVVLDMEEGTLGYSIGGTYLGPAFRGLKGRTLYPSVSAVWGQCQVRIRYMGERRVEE
The assay is described as above. As to conditions: both partners purified.

A further assay addresses T4, Par-4 (Homo sapiens, UniProt Q96IZ0).
T4 chain: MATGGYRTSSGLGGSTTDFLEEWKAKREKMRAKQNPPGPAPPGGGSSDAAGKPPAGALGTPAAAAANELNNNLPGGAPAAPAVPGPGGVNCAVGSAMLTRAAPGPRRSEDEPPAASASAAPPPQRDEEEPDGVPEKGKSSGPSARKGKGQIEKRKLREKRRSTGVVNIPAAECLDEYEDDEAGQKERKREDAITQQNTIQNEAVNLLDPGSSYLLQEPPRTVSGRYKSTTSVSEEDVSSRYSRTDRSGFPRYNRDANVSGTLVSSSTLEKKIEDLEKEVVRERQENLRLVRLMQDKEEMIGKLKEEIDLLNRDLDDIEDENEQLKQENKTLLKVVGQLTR
The experiment in a line: ITC.

B1: hPar-4(67–81) (peptide)
peptide: NELNNNLPGGAPAAP
notes: human prostate apoptosis response protein-4 (hPar-4), residues 67-81; source: synthetic peptide (ThermoElectron GmbH)
On to B1, for which, in the assay with hSPSB1(24–233), the Kd amounted to 150 nM, the dH is -13.2 ± 0.1 kcal/mol and the “stoichiometry N” value is 0.94. In the assay with hSPSB2(26–219), binding was characterised by a dissociation constant (Kd) of 1520 nM, the dH is -16.2 ± 0.1 kcal/mol and the “stoichiometry N” value stood at 1.18.

B2: VASA(184–203) (peptide)
peptide: DINNNNNIVEDVERKREFYI
notes: DEAD-box RNA helicase VASA of Drosophila, residues 184-203; also called VASA-derived peptide; source: synthetic peptide (ThermoElectron GmbH)
Turning to B2, in the assay with hSPSB1(24–233), the dH was -20.5 ± 0.2 kcal/mol and the “stoichiometry N” value was 0.96. In addition, in the assay with hSPSB2(26–219), binding was put at a Kd of 147 nM, the dH was -23.9 ± 0.1 kcal/mol and the “stoichiometry N” value worked out at 0.96.

B3: [E68D,L69I]hPar-4(64–77) (peptide)
peptide: AAANDINNNLPGGA
notes: human prostate apoptosis response protein-4 (hPar-4), residues 64-77, E68D and L69I (DINNN motif as in VASA); also called double mutant; source: synthetic peptide (GenScript Corporation)
As for B3, the Kd with mSPSB4ΔSB (murine) came to 33 nM; in the assay with mSPSB1ΔSB (murine), 40 nM; in the assay with mSPSB2(12–224), 106 nM.

B4: [N70A]hPar-4(64–77) (peptide)
peptide: AAANELANNLPGGA
notes: human prostate apoptosis response protein-4 (hPar-4), residues 64-77, N70A; source: synthetic peptide (GenScript Corporation)
On to B4, for which the Kd in the assay with mSPSB4ΔSB (murine) and with mSPSB1ΔSB (murine) was over 50000 nM in each case.

B5: [N71A]hPar-4(64–77) (peptide)
peptide: AAANELNANLPGGA
notes: human prostate apoptosis response protein-4 (hPar-4), residues 64-77, N71A; source: synthetic peptide (GenScript Corporation)
On to B5, for which the Kd with mSPSB4ΔSB (murine) and in the assay with mSPSB1ΔSB (murine) was over 50000 nM in each case.

B6: [L69I]hPar-4(64–77) (peptide)
peptide: AAANEINNNLPGGA
notes: human prostate apoptosis response protein-4 (hPar-4), residues 64-77, L69I
Take B6: the figures for the dissociation constant (Kd) with mSPSB4ΔSB (murine) and with mSPSB2(12–224) were 55 nM and 1600 nM, respectively.

B7: [E68D]hPar-4(64–77) (peptide)
peptide: AAANDLNNNLPGGA
notes: human prostate apoptosis response protein-4 (hPar-4), residues 64-77, E68D
On to B7, for which the Kd in the assay with mSPSB4ΔSB (murine) came out at 47 nM; with mSPSB2(12–224), 208 nM.

B8: [A66D]hPar-4(59–77) (peptide)
peptide: GTPAAAADNELNNNLPGGA
notes: human prostate apoptosis response protein-4 (hPar-4), residues 59-77, A66D; source: synthetic peptide (GL Biochem)
For the molecule B8, the Kd with mSPSB4ΔSB (murine) amounted to 255 nM; with mSPSB2(12–224) it was 4000 nM.

B9: SPSB2 (protein)
chain: MGQTALAGGSSSTPTPQALYPDLSCPEGLEELLSAPPPDLGAQRRHGWNPKDCSENIEVKEGGLYFERRPVAQSTDGARGKRGYSRGLHAWEISWPLEQRGTHAVVGVATALAPLQTDHYAALLGSNSESWGWDIGRGKLYHQSKGPGAPQYPAGTQGEQLEVPERLLVVLDMEEGTLGYAIGGTYLGPAFRGLKGRTLYPAVSAVWGQCQVRIRYLGERRAEPHSLLHLSRLCVRHNLGDTRLGQVSALPLPPAMKRYLLYQ
In turn, B9 showed a Kd in the assay with Par-4 of 1500 nM.

For the origin of these results see PMC2923778 (Journal of Molecular Biology, 2010).
